# Measured values as given in patent US20200199244A1 (published 2020).
# Positions count from the first letter of the chain named. Values joined by “and” are separate entries in the source; they are usually repeats but may differ in a detail not shown here. Identical values can stand only once.
# B1: BMS3h-217-8 (other)
# VL: DIQMTQSPSSLSASVGDRVTITCRASHFIGTLLSWYQHKPGKAPKLLITYGSLLQSGVPSRFSGSGSGTDFTLTISSLQPEDFATYYCGQGVLWPATFGQGTKVEIKR
# notes: dAb, single VK
# B2: BMS3h-217-9 (other)
# VL: B1 VL with L53M
# notes: dAb, single VK
# B3: BMS3h-217-15 (other)
# VL: B1 VL with S12Y, A25V, H38Q, T74S, A96P, R108Q
# notes: dAb, single VK
# B4: BMS3h-217-16 (other)
# VL: B1 VL with H38Q, G41R, A96P
# notes: dAb, single VK
# B5: BMS3h-217-17 (other)
# VL: B1 VL with M4I, T5I, H38Q, A96P
# notes: dAb, single VK
# B6: BMS3h-217-23 (other)
# VL: B1 VL with T31S, H38V, K103T
# notes: dAb, single VK
# B7: BMS3h-56-7 (other)
# VH: EVQLLESGGGLVQPGGSLRLSCAASGFTFRDYEMWWVRQAPGKGLERVSAINPQGTRTYYADSVKGRFTISRDNSKNTLYLQMNSLRAEDTSVYHCAKPPFIFGDWGPGTLVTVSS
# notes: dAb, single VH
# B8: BMS3h-56-8 (other)
# VH: B7 VH with L18R, S92A, H95Y, P99L, I102T, G104E, P108Q
# notes: dAb, single VH
# B9: BMS3h-56-16 (other)
# VH: B7 VH with K65M, S92A, H95Y, P99L, I102T, G104E, P108Q
# notes: dAb, single VH
# B10: BMS3h-56-17 (other)
# VH: B7 VH with T28S, V37Y, S92A, H95Y, P99L, I102T, G104E, P108Q
# notes: dAb, single VH
# B11: BMS3h-56-18 (other)
# VH: B7 VH with G44V, T78M, S92A, H95Y, P99L, I102T, G104E, P108Q
# notes: dAb, single VH
# B12: BMS3h-56-19 (other)
# VH: B7 VH with S92A, P99L, I102T, G104E, P108Q
# notes: dAb, single VH
# B13: BMS3h-56-20 (other)
# VH: B7 VH with S92A, H95Y, A97T, P99L, I102T, G104E, P108Q
# notes: dAb, single VH
# B14: BMS3h-56-21 (other)
# VH: B7 VH with S92A, H95Y, A97L, P99L, I102T, G104E, P108Q
# notes: dAb, single VH
# B15: BMS3h-56-22 (other)
# VH: B7 VH with E89D, S92A, A97T, P99L, G104E, D105Y, P108Q
# notes: dAb, single VH
# B16: BMS3h-56-23 (other)
# VH: B7 VH with K65M, S92A, H95Y, P99E, F101Y, I102S, G104D, D105S, P108Q
# notes: dAb, single VH
# B17: BMS3h-56-24 (other)
# VH: B7 VH with K65M, S92A, P99E, F101Y, I102S, F103Y, G104D, D105Y, P108Q
# notes: dAb, single VH
# B18: BMS3h-56-25 (other)
# VH: B7 VH with Q39R, K65M, S92A, H95Y, P99L, I102T, G104D, P108Q
# notes: dAb, single VH
# B19: BMS3h-56-26 (other)
# VH: B7 VH with Q39R, K65M, S92A, H95Y, P99L, I102M, G104D, W106R, P108Q
# notes: dAb, single VH
# B20: BMS3h-56-28 (other)
# VH: B7 VH with R30A, D31G, M34L, K65M, S92A, H95Y, P99L, I102T, G104D, P108Q
# notes: dAb, single VH
# B21: BMS3h-56-29 (other)
# VH: EVQLLESGGGLVQPGGSLRLSCAASGFTFAGYELWWVRQAPGKGLERVSAINPQGTRTYYADSVMGRFTISRDNSKNTLYLQMNSLRAEDTAVYYCAKLPFMFDDRGQGTLVTVSS
# notes: dAb, single VH
# B22: BMS3h-56-30 (other)
# VH: B21 VH with L34M, V37F, M102T, R106W
# notes: dAb, single VH
# B23: BMS3h-56-31 (other)
# VH: B21 VH with L34M, V37F
# notes: dAb, single VH
# B24: BMS3h-198-9 (other)
# VH: EVQLLESGGGLVQPGGSLRLSCAASGFTFAGYEMWWVRQAPGKGLERVSAISGSGGSTYYADSVKGRFTISRDDSKNTLYLQMNSLRAEDTAVYYCAKEPYSFDYWGQGTLVTVSS
# notes: dAb, single VH
# B25: BMS3h-198-17 (other)
# VH: B24 VH with K98R, E99D
# notes: dAb, single VH
# B26: BMS3h-198-31 (other)
# VH: B24 VH with D74N, Y95H, F103Y
# notes: dAb, single VH
# B27: BMS3h-198-32 (other)
# VH: B24 VH with V37F, D74N, E99D, Y105N
# notes: dAb, single VH
# B28: BMS3h-198-33 (other)
# VH: B24 VH with F103Y
# notes: dAb, single VH
# B29: BMS3h-198-34 (other)
# VH: B24 VH with E99D, Y105N
# notes: dAb, single VH
# B30: BMS3h-193-12 (other)
# VL: DIQMTQSPSSLSASVGDRVTITCRASQTIERRLNWYQQKPGKAPKLLIYLASRLQSGVPSRFSGSGSGTDFTLTISSLQPEDFATYYCHQYESPPLTFGQGTKVEIKR
# notes: dAb, single VK
# B31: BMS3h-193-7 (other)
# VL: B30 VL with M4I, A43D
# notes: dAb, single VK
# B32: BMS3h-193-10 (other)
# VL: B30 VL with T5S, S10T, T97M
# notes: dAb, single VK
# B33: BMS3h-193-11 (other)
# VL: B30 VL with A43D
# notes: dAb, single VK
# B34: BMS3h-193-18 (other)
# VL: B30 VL with E30G, T69S
# notes: dAb, single VK
# B35: BMS3h-193-19 (other)
# VL: B30 VL with D70E
# notes: dAb, single VK
# B36: BMS3h-193-25 (other)
# VL: B30 VL with K45R, S52T
# notes: dAb, single VK
# B37: BMS3h-193-26 (other)
# VL: B30 VL with T28P
# notes: dAb, single VK
# B38: BMS3h-193-27 (other)
# VL: B30 VL with E30G
# notes: dAb, single VK
# B39: BMS3h-193-30 (other)
# VL: B30 VL with T28S
# notes: dAb, single VK
# B40: BMS3h-198-10 (other)
# VH: B24 VH with F27S, F29I, E99D
# notes: dAb, single VH
# B41: BMS3h-198-11 (other)
# VH: B24 VH with K98R, E99D, T113S
# notes: dAb, single VH
# B42: BMS3h-198-14 (other)
# VH: B24 VH with V37F, S75T, E99D, G107R
# notes: dAb, single VH
# B43: BMS3h-198-19 (other)
# VH: B24 VH with M34L, K98R, E99D, W106R
# notes: dAb, single VH
# B44: BMS3h-198-22 (other)
# VH: B24 VH with F103Y, Q108H
# notes: dAb, single VH
# B45: BMS3h-198-37 (other)
# VH: B24 VH with M34L, E99D, W106R
# notes: dAb, single VH
# B46: BMS3h-198-38 (other)
# VH: B24 VH with M34L, K98R, E99D
# notes: dAb, single VH
# B47: BMS3h-37-2 (other)
# VH: EVQLLESGGGLVQPGGSLRLSCAASGFTFEWYEMQWVRRAPGKGLEWVSAISGDGYRTYYADSVKGRFTISRDNSKNTLYLQMNSLRAEDTAVYYCAKELGYFDYWGRGTLVTVSS
# notes: domain antibody (dAb): single human VH domain
# B48: BMS3h-37-5 (other)
# VH: B47 VH with R39Q, V48I, W106R, G107V, R108Q
# notes: as for B47
# B49: BMS3h-38-1 (other)
# VH: B24 VH with E6G, A30E, G31E, Y32E, W35I, R47W, D74N, A97S, Y101F, S102R
# notes: as for B47
# B50: BMS3h-38-2 (other)
# VH: EVQLLASGGGLVQPGGSLRLSCAASGFTFEEEEMIWVRQAPGKGLEWVSAISGSGGSTYYADSVKGRFTISRDNSKNTLYLQMNSLRAEDTAVYYCGKEPFRYDYWGQGTLVTVSS
# notes: as for B47
# B51: BMS3h-38-3 (other)
# VH: B50 VH with V48I, Y103F
# notes: as for B47
# B52: BMS3h-41-1 (other)
# VH: EVQLLESGEGLVQPGGSLRLSCAASGFTFTEHEMIWVRQAPGKGLEWVSSISGNGANTYYADSVKGRFTISRDNSKNTLYLQMNSLRPEDTAVYYCAKEPLRFDYWGQGTLVTVSS
# notes: as for B47
# B53: BMS3h-198-1 (other)
# VH: B24 VH with F27S, F29I, K98R, E99D
# notes: as for B47
# Biological target: T1, human CD40 (BMS, CY24FEB06-01) (human, UniProt P25942 21-193)
# T1 construct: Soluble reagent of the bead and ELISA RBA; It is detected with an anti-human IgG (Fc) mAb, so it may be a CD40-Ig fusion
# T1 sequence (P25942 21-193 limits assumed): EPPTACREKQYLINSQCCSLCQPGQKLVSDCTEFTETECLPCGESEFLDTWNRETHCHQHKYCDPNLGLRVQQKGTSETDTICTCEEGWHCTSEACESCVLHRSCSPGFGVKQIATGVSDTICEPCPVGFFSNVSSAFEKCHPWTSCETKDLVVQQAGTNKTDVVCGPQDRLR
# Assay: ELISA RBA, competition with IZ-CD40L;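 further: Neutravidin-coated 384-well plate, dAb–human CD40 complex bound for 2 h at room temperature, absorbance read at 450 nm after HCl stop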
# Experimental: Clear walled High Bind, 384-well plates (Corning, UK) were coated with 25 μl of 1 μg/ml Neutravidin in 0.2 M carbonate-bicarbonate buffer, pH 9.4 overnight at 4° C. The following day, assay plates were washed with 0.1% (v/v) Tween PBS buffer, blocked with 1% (w/v) BSA in PBS for 1 hour at room temperature and washed again. […] Following washing of the assay plate, the dAb:human CD40 complex was incubated in the assay plate at room temperature for 2 hours with gentle agitation. […] Absorbance signal was measured using a SpectraMax® M5e plate reader (Molecular Devices) at 450 nm following neutralization with 1M HCl solution.
row,EC50,Binder
1,0.006 µM,B1
2,0.053 µM,B2
3,0.021 µM,B3
4,0.009 µM,B4
5,0.06 µM,B5
6,0.016 µM,B6
7,0.0055 µM,B7
8,0.0062 µM,B8
9,0.007 µM,B9
10,0.066 µM,B10
11,0.0065 µM,B11
12,0.0055 µM and 0.0051 µM,B12
13,0.0068 µM,B13
14,0.0065 µM and 0.0062 µM,B14
15,0.0065 µM,B15
16,0.0245 µM,B16
17,0.0117 µM,B17
18,0.0055 µM,B18
19,0.005 µM,B19
20,0.0089 µM,B20
21,0.0097 µM,B21
22,0.0242 µM,B22
23,0.061 µM,B23

row,EC50,Binder
1,0.02 µM,B24
2,0.02 µM,B25
3,0.0061 µM,B26
4,0.0247 µM,B27
5,0.0087 µM,B28
6,0.0326 µM,B29
7,0.2 µM,B30
8,0.3 µM,B31
9,0.2 µM,B32
10,0.3 µM,B33
11,0.1 µM,B34
12,0.1 µM,B35
13,0.14 µM,B36
14,0.1 µM,B37
15,0.1 µM,B38
16,0.29 µM and 0.116 µM,B39
17,0.035 µM,B40
18,0.02 µM,B41
19,0.009 µM,B42
20,0.0079 µM,B43
21,0.01 µM,B44
22,0.0151 µM,B45
23,0.0072 µM,B46

# Biological target: T2, biotinylated human CD40 (BMS) (human, UniProt P25942 21-193, limits assumed, biotinylated (sites not given))
# T2 construct: Ligand immobilised on the streptavidin BIAcore chip
# T2 sequence (P25942 21-193 limits assumed): as above
# Assay: BIAcore SPR, immobilised biotinylated human CD40, 1:1 fit;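 further: binding kinetics of dAbs flowed over the CD40 surface at 25 °C in HBS-EP, 300 s dissociation, signal corrected by reference cell and buffer blank, global Langmuir fit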
Kd [µM],koff [s⁻¹],kon [M⁻¹ s⁻¹],Binder
0.004,0.00041,100000,B47
0.0055,0.00022,39000,B48
0.033,0.0011,32000,B49
0.012,0.00075,61000,B50
0.0055,0.00041,75000,B51
0.011,0.00056,51000,B52
0.013,0.00018,15000,B53
